Read-outs that look alike come from different tables or passages of the source.

The nature of data set [1]: AUC.
The nature of data set [2]: AUC. The source holds these as a separate data set.

In “AUC [1]”, “GFP-HttQ28 (huntingtin exon 1 fragment with 28 glutamines fused to GFP, expressed in C. elegans)” gave a % aggregates (20-1000 S area) of 70% and a % monomer (1-20 S area) of 30%.

In the data set “AUC [1]”, “GFP-HttQ74 (huntingtin exon 1 fragment with 74 glutamines fused to GFP, expressed in C. elegans)” yielded a % aggregates (20-1000 S area) of 97% and a % monomer (1-20 S area) of 3%.

In the data set “AUC [2]”, “HttQ25-eGFP (huntingtin exon 1 fragment with 25 glutamines fused to eGFP, expressed in D. melanogaster)” gave a % aggregates (20-1000 S area) of 65% and a % monomer (1-20 S area) of 35%. In “AUC [1]”, this substance registered a % aggregates (20-1000 S area) of 66%; a % aggregates (20-1000 S area), Hsp70 co-expressed of 62%; a % aggregates (20-1000 S area), average of all runs of 64.7%; a % monomer (1-20 S area) of 34%. Besides, in “AUC [1]”, the % monomer (1-20 S area), Hsp70 co-expressed is 38% and the % monomer (1-20 S area), average of all runs turned out to be 35.3%.

In “AUC [2]”, “HttQ46-eGFP (huntingtin exon 1 fragment with 46 glutamines fused to eGFP, expressed in D. melanogaster)” had a % aggregates (20-1000 S area) of 79% and a % monomer (1-20 S area) of 21%. Besides, in the data set “AUC [1]”, the % aggregates (20-1000 S area) worked out at 76%; the % aggregates (20-1000 S area), Hsp70 co-expressed stood at 78%; the % aggregates (20-1000 S area), average of all runs is 83.2%; the % monomer (1-20 S area) was 24%. In the data set “AUC [1]”, the % monomer (1-20 S area), Hsp70 co-expressed worked out at 22% and the % monomer (1-20 S area), average of all runs turned out to be 16.8%.

Turning to “HttQ72-eGFP (huntingtin exon 1 fragment with 72 glutamines fused to eGFP, expressed in D. melanogaster)”, in “AUC [2]”, the % aggregates (20-1000 S area) turned out to be 90% and the % monomer (1-20 S area) was determined as 10%. In addition, in the data set “AUC [1]”, the % aggregates (20-1000 S area) was 93%; the % aggregates (20-1000 S area), average of all runs came to 93.3%; the % monomer (1-20 S area) amounted to 7%; the % monomer (1-20 S area), average of all runs is 6.7%.

With “HttQ97-eGFP (huntingtin exon 1 fragment with 97 glutamines fused to eGFP, expressed in D. melanogaster)”, in “AUC [2]”, the % aggregates (20-1000 S area) is 86% and the % monomer (1-20 S area) was found to be 14%. Besides, in the data set “AUC [1]”, the % aggregates (20-1000 S area) turned out to be 82%; the % aggregates (20-1000 S area), Hsp70 co-expressed amounted to 91%; the % aggregates (20-1000 S area), average of all runs is 85.6%; the % monomer (1-20 S area) amounted to 18%. In the data set “AUC [1]”, this substance came in with a % monomer (1-20 S area), Hsp70 co-expressed of 9% and a % monomer (1-20 S area), average of all runs of 14.7%.

(Values after publication PMC5639329.)
